Laboratory results published in the supplement of paper PMC10065799, “High-throughput profiling of sequence recognition by tyrosine kinases and SH2 domains using bacterial peptide display” (eLife, 2023).

How the values were obtained:
FGFR1 = FGFR1 (UniProt P11362); experiment: phosphorylation enrichment, bacterial display (enrichment ratio); higher = better substrate or ligand; peptides without Tyr show the background
Jak2 = Jak2 (UniProt O60674); experiment: as above
FGFR3 = FGFR3 (UniProt P22607); experiment: as above
c-Src = experiment: as above
EPHB2 = EPHB2 (UniProt P29323); experiment: as above
Hck = Hck (UniProt P08631); experiment: as above
MERTK = MERTK (UniProt Q12866); experiment: as above
c-Abl (mouse) = experiment: as above
Fer (mouse) = experiment: as above
Fyn = Fyn (UniProt P06241); experiment: as above
EPHB1 = EPHB1 (UniProt P54762); experiment: as above
AncSZ = experiment: as above
Fes = Fes (UniProt P07332); experiment: as above
Grb2 SH2 = Grb2 SH2 (UniProt P62993); experiment: SH2 binding enrichment of the phosphorylated peptide, bacterial display (enrichment ratio); higher = better substrate or ligand; peptides without Tyr show the background
SHP2-C SH2 = experiment: as above
c-Src SH2 = experiment: as above
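Wherever SH2 binding enrichment of the phosphorylated peptide, bacterial display is given: peptide library displayed on the E. coli surface as eCPX fusions, selected cells deep-sequenced, score is each peptide's frequency after selection divided by its frequency in the input.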
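Wherever phosphorylation enrichment, bacterial display is given: 11-residue human phosphosite peptides and single-mutation variants displayed on the E. coli surface, counted by deep sequencing, each peptide's frequency after selection divided by its frequency in the unselected input library; frequency after pTyr selection over input frequency; kinase dosed for 20-30% of maximal phosphorylation in three min.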

Jak2, sequence (O60674 whole entry, looked up): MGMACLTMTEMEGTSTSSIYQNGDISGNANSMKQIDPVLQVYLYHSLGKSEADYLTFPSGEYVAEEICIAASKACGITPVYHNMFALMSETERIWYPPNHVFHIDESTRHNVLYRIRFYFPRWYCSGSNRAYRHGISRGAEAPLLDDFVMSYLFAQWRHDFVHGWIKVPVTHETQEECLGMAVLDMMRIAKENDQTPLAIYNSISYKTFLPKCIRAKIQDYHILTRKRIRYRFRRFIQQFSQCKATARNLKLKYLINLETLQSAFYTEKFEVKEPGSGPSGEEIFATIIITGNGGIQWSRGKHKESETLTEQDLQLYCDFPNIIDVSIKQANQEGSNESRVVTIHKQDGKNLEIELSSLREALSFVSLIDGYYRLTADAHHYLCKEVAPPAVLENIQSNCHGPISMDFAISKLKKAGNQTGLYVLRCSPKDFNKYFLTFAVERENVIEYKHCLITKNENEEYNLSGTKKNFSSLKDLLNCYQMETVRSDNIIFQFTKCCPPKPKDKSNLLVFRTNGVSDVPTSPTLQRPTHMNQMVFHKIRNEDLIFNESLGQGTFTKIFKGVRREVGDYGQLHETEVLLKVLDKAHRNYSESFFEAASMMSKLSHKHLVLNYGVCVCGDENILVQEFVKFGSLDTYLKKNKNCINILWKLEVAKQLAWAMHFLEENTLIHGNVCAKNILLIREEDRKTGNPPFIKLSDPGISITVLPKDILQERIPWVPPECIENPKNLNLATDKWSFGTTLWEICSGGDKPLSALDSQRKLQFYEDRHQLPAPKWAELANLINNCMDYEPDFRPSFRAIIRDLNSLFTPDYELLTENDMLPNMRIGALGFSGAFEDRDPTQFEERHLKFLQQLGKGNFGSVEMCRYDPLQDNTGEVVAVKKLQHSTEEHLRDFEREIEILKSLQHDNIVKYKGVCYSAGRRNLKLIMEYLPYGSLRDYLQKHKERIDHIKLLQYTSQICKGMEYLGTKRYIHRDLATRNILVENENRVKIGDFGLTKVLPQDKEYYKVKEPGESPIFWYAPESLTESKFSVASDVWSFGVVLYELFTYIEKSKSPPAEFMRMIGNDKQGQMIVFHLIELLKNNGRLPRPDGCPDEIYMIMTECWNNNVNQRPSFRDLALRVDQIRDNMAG
FGFR1, sequence (P11362 whole entry, looked up): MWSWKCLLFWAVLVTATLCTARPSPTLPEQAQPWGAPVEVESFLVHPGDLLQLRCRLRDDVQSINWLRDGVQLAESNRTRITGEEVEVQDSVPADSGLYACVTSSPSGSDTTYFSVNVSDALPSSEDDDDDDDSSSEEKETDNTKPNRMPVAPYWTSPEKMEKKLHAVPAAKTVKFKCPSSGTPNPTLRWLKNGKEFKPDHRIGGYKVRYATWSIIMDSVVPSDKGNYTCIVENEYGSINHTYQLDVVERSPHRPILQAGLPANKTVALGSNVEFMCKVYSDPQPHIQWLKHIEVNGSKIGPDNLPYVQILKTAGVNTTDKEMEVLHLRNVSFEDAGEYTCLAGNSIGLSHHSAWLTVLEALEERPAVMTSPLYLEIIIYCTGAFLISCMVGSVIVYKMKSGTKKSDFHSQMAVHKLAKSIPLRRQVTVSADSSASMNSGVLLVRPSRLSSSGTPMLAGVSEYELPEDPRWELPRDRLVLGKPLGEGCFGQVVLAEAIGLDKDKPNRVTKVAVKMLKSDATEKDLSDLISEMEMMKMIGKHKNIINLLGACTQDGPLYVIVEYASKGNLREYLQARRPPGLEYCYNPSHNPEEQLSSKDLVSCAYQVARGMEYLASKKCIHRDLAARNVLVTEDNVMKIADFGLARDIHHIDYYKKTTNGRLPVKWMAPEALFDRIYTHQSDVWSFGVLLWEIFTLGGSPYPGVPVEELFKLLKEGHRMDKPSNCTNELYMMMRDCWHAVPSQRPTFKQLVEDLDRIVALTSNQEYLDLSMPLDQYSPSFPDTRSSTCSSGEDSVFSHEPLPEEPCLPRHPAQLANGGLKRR
EPHB1, sequence (P54762 whole entry, looked up): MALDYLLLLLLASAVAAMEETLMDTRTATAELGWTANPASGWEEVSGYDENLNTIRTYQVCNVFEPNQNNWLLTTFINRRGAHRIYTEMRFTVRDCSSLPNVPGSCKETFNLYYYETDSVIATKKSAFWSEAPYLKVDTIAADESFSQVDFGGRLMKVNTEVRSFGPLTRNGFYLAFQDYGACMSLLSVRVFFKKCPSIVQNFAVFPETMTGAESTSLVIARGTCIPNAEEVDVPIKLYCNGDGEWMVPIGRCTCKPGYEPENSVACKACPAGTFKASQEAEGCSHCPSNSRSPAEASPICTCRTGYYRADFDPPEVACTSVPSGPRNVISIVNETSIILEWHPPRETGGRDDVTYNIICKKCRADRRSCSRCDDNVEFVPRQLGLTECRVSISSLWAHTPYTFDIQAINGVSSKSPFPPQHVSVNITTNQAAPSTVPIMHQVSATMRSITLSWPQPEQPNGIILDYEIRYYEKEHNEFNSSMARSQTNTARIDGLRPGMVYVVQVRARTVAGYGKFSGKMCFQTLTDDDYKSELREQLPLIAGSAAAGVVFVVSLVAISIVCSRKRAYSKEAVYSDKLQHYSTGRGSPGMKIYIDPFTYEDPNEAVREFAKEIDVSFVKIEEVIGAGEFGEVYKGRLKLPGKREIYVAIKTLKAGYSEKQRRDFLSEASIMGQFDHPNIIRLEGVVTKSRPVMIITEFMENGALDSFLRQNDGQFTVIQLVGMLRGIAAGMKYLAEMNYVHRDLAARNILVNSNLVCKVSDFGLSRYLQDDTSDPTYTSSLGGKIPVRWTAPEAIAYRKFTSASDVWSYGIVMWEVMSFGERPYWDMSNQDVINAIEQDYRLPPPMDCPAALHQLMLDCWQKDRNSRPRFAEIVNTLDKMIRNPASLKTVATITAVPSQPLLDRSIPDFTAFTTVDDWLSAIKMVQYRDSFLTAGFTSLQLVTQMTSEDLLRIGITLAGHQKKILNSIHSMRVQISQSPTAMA
Fes, sequence (P07332 whole entry, looked up): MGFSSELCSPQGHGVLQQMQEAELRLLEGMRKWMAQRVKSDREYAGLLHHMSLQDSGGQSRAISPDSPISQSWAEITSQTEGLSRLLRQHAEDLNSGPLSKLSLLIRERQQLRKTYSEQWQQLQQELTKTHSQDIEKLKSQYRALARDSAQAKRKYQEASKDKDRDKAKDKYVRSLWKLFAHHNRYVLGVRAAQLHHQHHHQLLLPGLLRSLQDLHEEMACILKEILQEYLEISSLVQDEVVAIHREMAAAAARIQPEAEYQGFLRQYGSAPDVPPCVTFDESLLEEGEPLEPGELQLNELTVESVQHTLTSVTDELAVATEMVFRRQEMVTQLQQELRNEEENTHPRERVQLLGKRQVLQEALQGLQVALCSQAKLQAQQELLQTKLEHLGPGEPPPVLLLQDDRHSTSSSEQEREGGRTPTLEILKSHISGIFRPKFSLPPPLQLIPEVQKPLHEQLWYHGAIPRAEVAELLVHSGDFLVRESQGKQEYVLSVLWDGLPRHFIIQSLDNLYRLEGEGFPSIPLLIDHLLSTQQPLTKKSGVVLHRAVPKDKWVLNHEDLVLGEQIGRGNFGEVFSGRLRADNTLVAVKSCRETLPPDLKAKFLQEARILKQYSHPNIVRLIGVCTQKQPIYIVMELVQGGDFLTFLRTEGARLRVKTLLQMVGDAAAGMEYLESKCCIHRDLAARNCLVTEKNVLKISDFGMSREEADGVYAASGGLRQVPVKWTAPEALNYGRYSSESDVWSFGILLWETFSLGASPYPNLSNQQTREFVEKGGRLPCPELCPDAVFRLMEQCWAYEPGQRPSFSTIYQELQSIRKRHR
MERTK, sequence (Q12866 whole entry, looked up): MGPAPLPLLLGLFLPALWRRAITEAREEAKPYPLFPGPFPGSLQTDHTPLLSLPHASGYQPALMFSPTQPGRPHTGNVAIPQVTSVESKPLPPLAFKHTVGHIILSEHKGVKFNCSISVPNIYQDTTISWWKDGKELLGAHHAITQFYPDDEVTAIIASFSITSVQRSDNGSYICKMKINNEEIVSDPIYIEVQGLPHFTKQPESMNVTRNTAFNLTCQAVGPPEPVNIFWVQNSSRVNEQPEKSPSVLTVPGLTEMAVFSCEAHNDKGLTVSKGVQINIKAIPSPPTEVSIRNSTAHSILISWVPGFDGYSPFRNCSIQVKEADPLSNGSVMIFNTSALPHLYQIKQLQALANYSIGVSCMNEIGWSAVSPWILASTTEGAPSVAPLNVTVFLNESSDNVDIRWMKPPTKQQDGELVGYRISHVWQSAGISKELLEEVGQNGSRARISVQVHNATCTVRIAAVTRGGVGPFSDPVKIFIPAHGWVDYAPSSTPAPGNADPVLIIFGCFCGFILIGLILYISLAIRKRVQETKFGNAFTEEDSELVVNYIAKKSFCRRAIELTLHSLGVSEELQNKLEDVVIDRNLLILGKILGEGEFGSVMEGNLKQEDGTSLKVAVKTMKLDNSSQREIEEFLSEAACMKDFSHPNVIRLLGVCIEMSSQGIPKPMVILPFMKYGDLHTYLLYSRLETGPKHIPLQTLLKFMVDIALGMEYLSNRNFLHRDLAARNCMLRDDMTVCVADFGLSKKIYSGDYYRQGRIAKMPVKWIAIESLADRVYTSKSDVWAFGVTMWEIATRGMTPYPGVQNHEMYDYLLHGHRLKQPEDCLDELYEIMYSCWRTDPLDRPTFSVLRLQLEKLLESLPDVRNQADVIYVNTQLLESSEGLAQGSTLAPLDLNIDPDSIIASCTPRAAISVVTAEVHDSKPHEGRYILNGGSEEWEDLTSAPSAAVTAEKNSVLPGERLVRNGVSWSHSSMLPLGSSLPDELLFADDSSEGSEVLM

| Sequence | SH2 binding enrichment (Grb2 SH2) | SH2 binding enrichment (SHP2-C SH2) | SH2 binding enrichment (c-Src SH2) | phosphorylation enrichment (FGFR1) | phosphorylation enrichment (Jak2) | phosphorylation enrichment (FGFR3) | phosphorylation enrichment (c-Src) | phosphorylation enrichment (EPHB2) | phosphorylation enrichment (Hck) | phosphorylation enrichment (MERTK) | phosphorylation enrichment (c-Abl (mouse)) | phosphorylation enrichment (Fer (mouse)) | phosphorylation enrichment (Fyn) | phosphorylation enrichment (EPHB1) | phosphorylation enrichment (AncSZ) | phosphorylation enrichment (Fes) |
| --- | --- | --- | --- | --- | --- | --- | --- | --- | --- | --- | --- | --- | --- | --- | --- | --- |
| NTGDYCDLYGG [PTPN11_Y63_Y63C] | 1.01 | 0.747 | 0.988 | 7.05 | 1.04 | 4.75 | 2.91 | 11.3 | 3.78 | 0.838 | 0.877 | 1.48 | 2.26 | 9.45 | 2.71 | 1.16 |
| NTVLGYFIGCI [GARS1_Y408_R412C] | 0.906 | 0.514 | 0.438 | 0.457 | 1.18 | 0.828 | 0.465 | 0.63 | 0.467 | 0.381 | 0.826 | 0.598 | 0.491 | 0.653 | 1.19 | 1.31 |
| NVGGKYSFLKV [GRM3_Y478_YF] | 1.02 | 1.46 | 0.976 | 0.369 | 0.663 | 0.434 | 0.392 | 0.378 | 0.446 | 0.456 | 0.476 | 0.357 | 0.306 | 0.472 | 0.608 | 0.739 |
| PAVGIYNDNIN [CDCP1_Y707] | 0.749 | 0.729 | 0.481 | 0.612 | 0.925 | 0.575 | 1.12 | 0.685 | 1.17 | 0.641 | 0.71 | 0.6 | 1.29 | 0.806 | 1.07 | 1.08 |
| PDDPDYSLVDD [PSTPIP2_Y323_N322D] | 0.642 | 0.576 | 0.665 | 0.568 | 2.02 | 1.01 | 0.648 | 0.963 | 0.707 | 0.668 | 1.04 | 0.894 | 0.569 | 1.13 | 1.76 | 1.97 |
| PDGVEYLKNDP [GRIN3A_Y831] | 0.929 | 0.479 | 0.578 | 0.537 | 0.929 | 0.771 | 0.496 | 0.524 | 1 | 0.389 | 0.709 | 0.75 | 0.851 | 0.693 | 1.54 | 1.36 |
| PDSVDYPKKGY [CTSK_Y121_R122P] | 0.841 | 0.724 | 0.601 | 0.56 | 0.707 | 0.654 | 0.569 | 0.951 | 0.614 | 0.537 | 0.544 | 0.832 | 0.759 | 0.529 | 0.917 | 0.654 |
| PESCLYKESWL [IQGAP2_Y630] | 0.916 | 1.06 | 0.523 | 1.55 | 2.09 | 2.14 | 0.775 | 1.2 | 1.5 | 1.2 | 1.46 | 1.18 | 1.21 | 1.29 | 2.25 | 2.81 |

Further lines, with some results ahead:

| SH2 binding enrichment (Grb2 SH2) | SH2 binding enrichment (SHP2-C SH2) | SH2 binding enrichment (c-Src SH2) | Sequence | phosphorylation enrichment (FGFR1) | phosphorylation enrichment (Jak2) | phosphorylation enrichment (FGFR3) | phosphorylation enrichment (c-Src) | phosphorylation enrichment (EPHB2) | phosphorylation enrichment (Hck) | phosphorylation enrichment (MERTK) | phosphorylation enrichment (c-Abl (mouse)) | phosphorylation enrichment (Fer (mouse)) | phosphorylation enrichment (Fyn) | phosphorylation enrichment (EPHB1) | phosphorylation enrichment (AncSZ) | phosphorylation enrichment (Fes) |
| --- | --- | --- | --- | --- | --- | --- | --- | --- | --- | --- | --- | --- | --- | --- | --- | --- |
| 0.95 | 0.644 | 2.56 | NTGVYYDLYGG [PTPN11_Y63_D61V] | 13.7 | 2.33 | 10.8 | 5.31 | 5.04 | 6.5 | 7.75 | 0.715 | 2.49 | 6.07 | 6.16 | 1.88 | 1.18 |
| 0.743 | 0.607 | 2.16 | NTYEKYLEEEY [TF_Y669_G671E] | 0.553 | 1.6 | 0.86 | 0.9 | 0.686 | 0.608 | 0.563 | 1.27 | 0.563 | 0.535 | 0.802 | 1.6 | 1.93 |
| 0.619 | 0.517 | 0.469 | NVADHYRVYKP [ATP6V0D2_Y271_G272R] | 0.489 | 0.561 | 0.479 | 0.412 | 0.574 | 0.384 | 0.426 | 0.703 | 0.433 | 0.501 | 0.54 | 0.721 | 0.767 |
| 0.853 | 0.644 | 0.477 | NVTRKYTRQIL [MAP3K2_Y463] | 0.316 | 0.339 | 0.353 | 0.373 | 0.264 | 0.265 | 0.319 | 0.397 | 0.305 | 0.372 | 0.333 | 0.363 | 0.411 |
| 0.875 | 0.84 | 0.614 | NYRPGYNNFYN [USH2A_Y467] | 0.637 | 0.651 | 0.606 | 0.516 | 0.602 | 0.621 | 0.551 | 0.514 | 0.711 | 0.567 | 0.616 | 0.697 | 0.705 |
| 2.06 | 0.748 | 0.752 | PDGHEYIYVDP [PDGFRA_Y572] | 11.7 | 1.81 | 7.36 | 3.24 | 2.66 | 1.6 | 1.46 | 2.84 | 2.64 | 1.32 | 3.21 | 5.55 | 1.39 |
| 0.953 | 0.613 | 0.642 | PDKRIYQFTAS [SKAP2_Y197_A202S] | 0.831 | 0.637 | 0.649 | 0.765 | 0.629 | 0.698 | 0.846 | 0.551 | 0.802 | 0.826 | 0.491 | 0.691 | 0.684 |
| 0.909 | 0.548 | 0.474 | PDMHSYMVRFN [GRIN2D_Y732_YF] | 0.711 | 1.14 | 0.807 | 1.15 | 0.69 | 0.641 | 0.651 | 0.811 | 0.494 | 0.629 | 0.488 | 0.991 | 0.931 |
| 0.882 | 0.778 | 0.687 | PEADKYCLTYA [FGG_Y300_R301C] | 0.486 | 1.38 | 1.09 | 0.821 | 0.599 | 0.601 | 0.477 | 0.917 | 0.735 | 0.691 | 0.722 | 1.27 | 1.2 |
